Results as given in patent publication US20250346646A1, “COMPOUNDS USEFUL TO TREAT METABOLIC DISORDERS” (President and Fellows of Harvard College, priority 2016, published 2025).

Test system: aP2 knockout mice
Assay: Glucagon response of aP2 knockout mice given aP2, with or without CA33 preincubation
Format: in vivo, mouse
Settings: CA33 preincubated with aP2
Source text: Mouse and rabbit-mouse hybrid monoclonal antibodies raised against the human and mouse aP2 peptides were produced and screened. […] The systemic improvement in glucose metabolism was further verified using a glucose tolerance test (GTT).

B1: CA33: low-affinity anti-aP2 monoclonal antibody, rabbit-mouse hybrid, produced and purified by UCB; VL Seq. ID 28, VH Seq. ID 41 (antibody, V domains shown)
VH: QSVEESGGRLVTPGTPLTLTCTVSGFSLSTYYMSWVRQAPGKGLEWIGIIYPSGSTYCASWAKGRFTISKASTTVDLKITSPTTEDTATYFCARPDNDGTSGYLSGFGLWGQGTLVTVSS
VL: DVVMTQTPASVSEPVGGTVTIKCQASEDISRYLVWYQQKPGQPPKRLIYKASTLASGVPSRFKGSGSGTDFTLTISDLECDDAATYYCQCTYGTYAGSFFYSFGGGTEVVVE
modifications: Rabbit Ab 909 VH region; Rabbit Ab 909 VL-region
Glucagon responsiveness of aP2 knockout mice: prevents that
